9 molecules from patent US20260166139A1 (AKESO BIOPHARMA, published 2026) can be followed below.

The target in test [1] is T1, human CTLA4 (human, UniProt P16410 36-161, limits assumed).
T1 construct: also called human CTLA4 antigen; CTLA4 protein
T1 sequence (looked up): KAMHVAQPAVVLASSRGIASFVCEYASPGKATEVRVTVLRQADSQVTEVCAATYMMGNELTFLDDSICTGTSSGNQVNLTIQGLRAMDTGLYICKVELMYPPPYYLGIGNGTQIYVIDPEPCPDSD
Description: ELISA on coated CTLA4, source Human. Here is the method: (§1) The ELISA plate was coated with CTLA4 at 4° C. over night. […] The enzyme conjugated secondary antibody was added for incubation for 30 min. Then, the absorbance at 450 nm was determined on an ELISA plate reader.
Background: ELISA stands for enzyme-linked immunosorbent assay.

For test [2], the target named is T2, CTLA4 antigen (NCBI Gene ID: 1493) obtained by TEV protease cleavage of CTLA4-mFc (Homo sapiens (Human), UniProt P16410 37-161).
T2 construct: also called the antigen CTLA4
T2 sequence: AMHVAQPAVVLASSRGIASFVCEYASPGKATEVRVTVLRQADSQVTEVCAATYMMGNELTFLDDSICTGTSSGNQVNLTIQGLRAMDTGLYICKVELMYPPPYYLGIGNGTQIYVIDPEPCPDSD
Description: BLI (Fortebio), antibody on AR2G sensor, CTLA4 in solution. Here is the method:
2. […] After equilibration in PBST, the CTLA4 antigen was added for binding. […] Dissociation occurred in PBST.

Test [3] has as its target T3, CTLA4-mFc.
T3 construct: also called CTLA4ECD-mFc fusion protein; CTLA4 antigen
Briefly: competitive ELISA, competitor B7-1; third of three tests. How it is done:
(§2) After incubation at 37° C. for 40 minutes, the enzyme conjugated secondary antibody was added. After incubation at 37° C. for 30 minutes, the absorbance at 450 nm was detected on an ELISA plate reader.

Test [4] has as its target T3, CTLA4-mFc. Description: competitive ELISA, competitor B7-2; first of three tests. Here is the method:
as §2

For test [5], the target named is T3, CTLA4-mFc. Briefly: competitive ELISA, competitor B7-2; third of three tests. How it is done: as §2
The target in test [6] is T3, CTLA4-mFc. Briefly: competitive ELISA, competitor B7-1; second of three tests. Here is the method:
as §2

Test [7] addresses T3, CTLA4-mFc. Briefly: competitive ELISA, competitor B7-2; second of three tests. How it is done:
as §2

Test [8] addresses T3, CTLA4-mFc. Briefly: competitive ELISA, CTLA4-mFc coated, competitor B7/2-His; antibody 1 µg/ml. How it is done: as §2
Test [9] has as its target T3, CTLA4-mFc. Description: competitive ELISA, competitor B7-1; first of three tests; competitor B7-1; first of three tests, the run with controls 10D1 5.15 nM and 11.2.1 1.073 nM. Here is the method: as §2
Test [10] addresses T3, CTLA4-mFc. Briefly: competitive ELISA, competitor B7-1. How it is done: as §2
Target sequence in this assay (chain, as listed by the source limits assumed): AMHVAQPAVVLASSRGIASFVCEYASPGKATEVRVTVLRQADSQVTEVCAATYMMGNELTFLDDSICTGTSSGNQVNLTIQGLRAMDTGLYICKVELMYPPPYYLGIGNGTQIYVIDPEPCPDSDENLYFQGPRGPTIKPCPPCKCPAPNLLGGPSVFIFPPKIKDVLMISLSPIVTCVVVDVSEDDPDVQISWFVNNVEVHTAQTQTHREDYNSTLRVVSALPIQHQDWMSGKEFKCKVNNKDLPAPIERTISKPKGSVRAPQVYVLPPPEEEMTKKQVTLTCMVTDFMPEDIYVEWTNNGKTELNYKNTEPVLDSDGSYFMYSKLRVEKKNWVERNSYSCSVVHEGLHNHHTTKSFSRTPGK
The target in test [11] is T3, CTLA4-mFc. Description: competitive ELISA, competitor B7-2. Here is the method: as §2
Target sequence in this assay (chain, as listed by the source limits assumed): as above
Test [12] concerns the target T4, CTLA4 antigen on the surface of 293F-CTLA4 host cells (UniProt P16410 36-223, limits assumed).
T4 construct: whole, on cells
T4 sequence (looked up): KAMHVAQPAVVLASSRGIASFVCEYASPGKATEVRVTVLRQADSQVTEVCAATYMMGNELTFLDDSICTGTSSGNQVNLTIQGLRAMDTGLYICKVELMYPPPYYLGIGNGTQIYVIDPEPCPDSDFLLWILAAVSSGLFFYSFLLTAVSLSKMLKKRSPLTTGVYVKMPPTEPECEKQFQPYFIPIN
Description: flow cytometry, 293F-CTLA4 cells. Here is the method: (§3) After addition of 300 μL PBS, the fluorescent signal was detected using the FITC channel on the flow cytometer.
In general terms: A flow cytometer gives signals particle by particle.

The target in test [13] is T5, monkey CTLA4-hFc (monkey).
T5 construct: also called monkey CTLA4 antigen
Briefly: ELISA on coated CTLA4, source Monkey. Here is the method: as §1

Test [14] deals with T4, CTLA4 antigen on the surface of …. Briefly: flow cytometry, 293F-CTLA4 cells; antibody 1 nM. Here is the method: as §3
The target is the same in test [15]. Description: flow cytometry, 293F-CTLA4 cells; antibody 5 nM. How it is done: as §3
For test [16] the target is unchanged. Description: flow cytometry, 293F-CTLA4 cells; antibody 10 nM. How it is done:
as §3

The target is the same in test [17]. Briefly: flow cytometry, 293F-CTLA4 cells; antibody 25 nM. How it is done: as §3
Test [18] has the same target. Description: flow cytometry, 293F-CTLA4 cells; antibody 0.1 nM. Here is the method:
as §3

For test [19] the target is unchanged. Briefly: flow cytometry, 293F-CTLA4 cells; antibody 0.01 nM. How it is done:
as §3

Test [20] shares this target. Description: flow cytometry, 293F-CTLA4 cells; antibody 0.001 nM. Here is the method:
as §3

What is called EC50 is the concentration at which the effect is half-maximal. In general, Kd refers to a measure of binding affinity in units of concentration. What is called koff is the rate constant with which the complex falls apart. As a reminder, the kon is the second-order rate constant of association.

Changes are numbered by the printed parent chain.

B1: humanized antibody 8D2H2L15 (antibody, V domains shown)
VH: EVQLVESGGGLVQPGGSMRLSCAASGFTFSDNWMNWVRQAPGKGLEWLAQIRNKPYNYETYYSASVKGRFTISRDDSKNSVYLQMNSLKTEDTGVYYCTAQFAYWGQGTLVTVSS
VL: DIQMTQSPSSLSASVGDRVTITCRTSENIYGGLNWYQRKPGKSPKLLIYGATNLASGVSSRFSGSGSGTDYTLTISSLQPEDVATYYCQNVLSRHPGFGSGTKLEIK
In test [1], B1 displayed an EC50 of 0.042 nM. In test [2], this molecule gave a Kd of 1.02 nM, a koff of 0.000465 s⁻¹ and a kon of 454000 M⁻¹ s⁻¹.

B2: humanized antibody 8D2H2L2 (antibody, V domains shown)
VH: B1 VH
VL: B1 VL with S93R, R94S, H95P, P96F, G97T
notes: also called 8D2H2L2(20150327); 8D2H2L2(20140422)
In the case of B2, the EC50 came to 3.12 nM in test [3]; 1.64 nM in test [4]; 0.301 nM in [5]; 2.97 nM in test [6]; 0.368 nM in test [7]; 5.93 nM in [9]. In test [8], the “absorbance at 450 nm” value came to 0.05.

B3: humanized antibody 8D2H1L1 (antibody, V domains shown)
VH: B1 VH with A64D
VL: B1 VL with P40Q, V58M, T74K, Q79H, E81D, S93R, R94S, H95P, P96F, G97T
B3: the EC50 came out at 2.48 nM in test [10] and 0.178 nM in test [11].

B4: humanized antibody 8D2H3L3 (antibody, V domains shown)
VH: B1 VH with M18L, L48V, Y61E, S63A, V81A, G94A
VL: DIQMTQSPSSLSASVGDRVTITCRASENIYGGLNWYQQKPGKAPKLLIYGATSLASGVPSRFSGSGSGTDYTLTISSLQPEDFATYYCQNVLRSPFTFGSGTKLEIK
As for B4, the results for the concentration giving a half-maximal response (EC50) in test [12], in [1] and in test [13] were 4.54 nM, 0.129 nM and 0.385 nM, respectively. Also, the fluorescence intensity amounted to 623 in test [14]; 971 in [15]; 1080 in test [16]; 1090 in [17]; 108 in [18]; 25.1 in test [19]. The fluorescence intensity in test [20] is 10.8. Moreover, binding in [2] was put at a Kd of 1.05 nM. In [2], this molecule displayed a koff of 0.000327 s⁻¹. In test [2], the kon came out at 312000 M⁻¹ s⁻¹.

B5: humanized antibody 8D2H3L3 (antibody, V domains shown)
VH: B1 VH with M18L, L48V, Y61E, S63A, V81A, G94A
VL: B4 VL
On to B5, for which the results for the 50% effective concentration (EC50) in test [10] and in test [11] were 2.14 nM and 0.167 nM, respectively.

B6: humanized antibody 8D2H2L17 (antibody, V domains shown)
VH: B1 VH
VL: B1 VL with R94S, H95R
In test [1], B6 registered an EC50 of 0.047 nM. In test [2], this molecule gave a Kd of 0.766 nM, a koff of 0.000352 s⁻¹ and a kon of 459000 M⁻¹ s⁻¹.

B7: 8D2 recombinant antibody, 8D2(Re) (antibody, V domains shown)
VH: EVKLDETGGGLVQPGRPMKLSCVASGFTFSDNWMNWVRQSPEKGLEWLAQIRNKPYNYETYYSDSVKGRFTISRDDSKSSVYLQMNNLRGEDMGIYYCTAQFAYWGQGTLVTVSA
VL: DIQMTQSPASLSASVGETVTITCGTSENIYGGLNWYQRKQGKSPQLLIFGATNLADGMSSRFSGSGSGRQYSLKISSLHPDDVATYYCQNVLRSPFTFGSGTKLEI
Turning to B7, the figures for the concentration giving a half-maximal response (EC50) in test [10] and in [11] were 0.514 nM and 0.153 nM, respectively.

B8: monoclonal antibody 8D2 (antibody, V domains shown)
VH: B7 VH
VL: B7 VL
notes: Murine antibody purified from hybridoma supernatant; also called mAb 8D2; antibody secreted by the CTLA4-8D2 hybridoma cell line LT001
For the molecule B8, the half-maximal effective concentration (EC50) in test [12] came to 3.84 nM. Further, the fluorescence intensity in test [14] turned out to be 25.5; in test [15] it was 183; in test [16], 639; in test [17], 722; in test [18] it was 9.1; in test [19], 7.7. This molecule displayed a fluorescence intensity in test [20] of 7.6. Besides, the affinity in test [2], expressed as Kd, was 0.166 nM. This molecule returned a koff in [2] of 2.36e-05 s⁻¹. Besides, the kon in test [2] turned out to be 142000 M⁻¹ s⁻¹.

B9: 8D2 recombinant antibody, 8D2(Re) (antibody, V domains shown)
VH: B7 VH
VL: B7 VL
For B9, a half-maximal response in [12] (EC50) required 1.38 nM. Besides, the fluorescence intensity was determined as 321 in test [14]; 714 in test [15]; 898 in test [16]; 873 in test [17]; 66.7 in test [18]; 24.7 in [19]. In [20], the fluorescence intensity was determined as 24.6.
